Measured values published in US20240116985A1 (published 2024).
Starred links: 1 amine or outer side, 2 acyl side, 3 side chain; linkers in the order of their positions; H or OH if unused. Positions of bridges follow the written chain, without caps; N, C: chain ends. Non-standard residues stand in square brackets, D forms with d. Primed or numbered codes have the meaning given here. *: point of attachment. PyrS2(3) = (S)-3-amino-1-((pent-4-en-1-yloxy)carbonyl)pyrrolidine-3-carboxylic acid, stapling residue, C=CCCCOC(=O)N1CC[C@@](N[*:1])(C(=O)[*:2])C1; PyrS2″ = (S)-3-amino-1-((pent-4-en-1-yloxy)carbonyl)pyrrolidine-3-carboxylic acid (stapling residue), C=CCCCOC(=O)N1CC[C@@](N[*:1])(C(=O)[*:2])C1; B5(16) = 2-amino-2-(pent-4-en-1-yl)hept-6-enoic acid = 2,2-bis(4-pentenyl)glycine (stitching residue), C=CCCCC(CCCC=C)(N[*:1])C(=O)[*:2]; B5(4) = 2,2-bis(4-pentenyl)glycine = 2-amino-2-(pent-4-en-1-yl)hept-6-enoic acid (stitching residue), C=CCCCC(CCCC=C)(N[*:1])C(=O)[*:2]; TfeGA = (S)-2-amino-3-((carboxymethyl)(2,2,2-trifluoroethyl)amino)propanoic acid, O=C([C@H](CN(CC(=O)[*:3])CC(F)(F)F)N[*:1])[*:2]; PyrS2(5) = (S)-3-amino-1-((alkenyloxy)carbonyl)pyrrolidine-3-carboxylic acid, carbamate stapling residue; B5(3) = 2,2-bis(4-pentenyl)glycine (stitching residue), C=CCCCC(CCCC=C)(N[*:1])C(=O)[*:2]; B5″ = 2,2-bis(4-pentenyl)glycine, stitching residue, C=CCCCC(CCCC=C)(N[*:1])C(=O)[*:2]; Phe(3-COOH) = N[C@@H](Cc1cccc(C(=O)O)c1)C(=O)O; Phe(2-CF3) = N[C@@H](Cc1ccccc1C(F)(F)F)C(=O)O; Phe(2-Cl) = N[C@@H](Cc1ccccc1Cl)C(=O)O; Bta = N[C@@H](Cc1csc2ccccc12)C(=O)O; αAllylPro = C=CC[C@@]1(C(=O)O)CCCN1; tBuAla = CC(C)(C)C[C@H](N)C(=O)O; 3Thi = N[C@@H](Cc1ccsc1)C(=O)O; S8 = C=CCCCCCC[C@](C)(N)C(=O)O; PyrS2(4) = not defined here; Leu(ol) = CC(C)C[C@H](N)CO; Nle = CCCC[C@H](N)C(=O)O; Alaol = C[C@@H](CO)N*; Aib = CC(C)(N)C(=O)O

Experiments:
[1] = target: T1, beta-catenin in DLD1 TCF/LEF luciferase reporter cells (UniProt P35222 2-781); test: cell-based or functional assay
T1 sequence (looked up): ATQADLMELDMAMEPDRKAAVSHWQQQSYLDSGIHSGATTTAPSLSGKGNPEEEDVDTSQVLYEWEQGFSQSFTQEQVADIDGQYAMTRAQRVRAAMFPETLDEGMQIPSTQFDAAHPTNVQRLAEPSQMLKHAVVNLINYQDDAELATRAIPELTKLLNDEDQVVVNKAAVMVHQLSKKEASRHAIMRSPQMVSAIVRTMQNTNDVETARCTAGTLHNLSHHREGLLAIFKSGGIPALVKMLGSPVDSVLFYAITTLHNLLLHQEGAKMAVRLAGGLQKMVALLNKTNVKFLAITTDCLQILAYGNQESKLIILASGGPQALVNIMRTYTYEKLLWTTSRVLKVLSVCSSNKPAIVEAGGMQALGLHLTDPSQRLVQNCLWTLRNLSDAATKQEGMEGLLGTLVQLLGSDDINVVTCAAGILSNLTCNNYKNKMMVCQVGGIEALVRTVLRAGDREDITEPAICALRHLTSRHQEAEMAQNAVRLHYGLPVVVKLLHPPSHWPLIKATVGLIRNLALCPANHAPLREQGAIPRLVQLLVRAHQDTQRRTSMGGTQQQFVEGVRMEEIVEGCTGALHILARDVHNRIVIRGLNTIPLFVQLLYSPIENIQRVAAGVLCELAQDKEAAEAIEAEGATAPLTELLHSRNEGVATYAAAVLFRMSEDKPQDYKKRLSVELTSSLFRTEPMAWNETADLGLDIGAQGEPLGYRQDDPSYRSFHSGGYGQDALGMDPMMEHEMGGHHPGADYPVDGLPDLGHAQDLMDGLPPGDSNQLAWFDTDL

[2] = target: T2, B-cat-Halo (beta-catenin HaloTag NanoBRET construct expressed in HEK293 cells) (UniProt P35222 2-781); test: cell-based or functional assay
T2 sequence (looked up): T1 sequence (looked up)

B-cat-Halo [3] = target: T3, B-cat-Halo (UniProt P35222 1-781); test: cell-based or functional assay
T3 sequence (looked up): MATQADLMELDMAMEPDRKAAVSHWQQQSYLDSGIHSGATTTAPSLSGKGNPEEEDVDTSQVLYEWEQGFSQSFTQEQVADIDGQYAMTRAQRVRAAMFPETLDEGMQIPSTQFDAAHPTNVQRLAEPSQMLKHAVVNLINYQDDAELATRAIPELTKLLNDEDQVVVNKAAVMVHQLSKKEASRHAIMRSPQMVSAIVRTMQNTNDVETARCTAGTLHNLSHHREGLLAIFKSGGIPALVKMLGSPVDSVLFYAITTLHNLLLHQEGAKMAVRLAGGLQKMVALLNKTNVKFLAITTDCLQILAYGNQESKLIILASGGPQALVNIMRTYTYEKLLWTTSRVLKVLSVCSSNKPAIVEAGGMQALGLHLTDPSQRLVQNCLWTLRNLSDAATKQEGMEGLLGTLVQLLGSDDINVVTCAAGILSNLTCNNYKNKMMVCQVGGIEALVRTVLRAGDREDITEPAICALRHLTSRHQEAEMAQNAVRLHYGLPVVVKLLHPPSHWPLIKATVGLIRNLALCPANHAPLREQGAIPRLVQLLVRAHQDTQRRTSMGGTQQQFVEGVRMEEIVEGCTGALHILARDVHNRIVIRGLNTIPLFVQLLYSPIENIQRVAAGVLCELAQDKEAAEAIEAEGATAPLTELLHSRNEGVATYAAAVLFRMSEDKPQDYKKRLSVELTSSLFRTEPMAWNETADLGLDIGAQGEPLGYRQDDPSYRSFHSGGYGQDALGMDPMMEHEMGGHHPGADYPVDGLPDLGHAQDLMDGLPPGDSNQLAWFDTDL

B-cat-Halo [4] = target: T4, B-cat-Halo (UniProt P35222 1-781); test: cell-based or functional assay; remark: listed apart in the source
T4 sequence (looked up): T3 sequence (looked up)

[5] = target: T5, beta-catenin in DLD1 TCF/LEF luciferase reporter cells (UniProt P35222 1-781); test: cell-based or functional assay
T5 sequence (looked up): T3 sequence (looked up)

[6] = target: T6, beta-catenin in DLD1 TCF/LEF luciferase reporter cells (UniProt P35222 1-781); test: cell-based or functional assay; remark: listed apart in the source
T6 sequence (looked up): T3 sequence (looked up)

[7] = target: T7, beta-catenin in DLD1 TCF/LEF luciferase reporter cells (UniProt P35222 1-781); test: cell-based or functional assay; remark: listed apart in the source
T7 sequence (looked up): T3 sequence (looked up)

[8] = target: T8, B-cat-Halo (beta-catenin HaloTag construct transfected into HEK293 cells) (UniProt P35222 1-781); test: cell-based or functional assay
T8 sequence (looked up): T3 sequence (looked up)

Bcat-Halo = target: T9, Bcat-Halo (UniProt P35222 1-781); test: NanoBRET in HEK293 cells, Bcat-Halo/TCF4-Luc (competitor TCF4-Luc); absolute IC50
T9 construct: Construct transfected into HEK293 cells for NanoBRET; not shown: HaloTag fusion partner
T9 sequence (looked up): T3 sequence (looked up)

[9] = target: T10, full-length beta-Catenin (Uniprot ID P35222) (Homo sapiens (Human), UniProt P35222 2-781); test: fluorescence polarization competition; full-length beta-catenin, competitor 5FAM-TCF4(10-53) probe
T10 construct: Also used here for the endogenous beta-catenin of the DLD1 TCF reporter cells; also called bCat; B-Catenin
T10 sequence: T1 sequence (looked up)
In short: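 Readings followed a light-protected 60-minute incubation at 20° C. Each read was done in duplicate. Curves were fit with a 1:1 binding model including hill slope, and stated concentrations are final.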

Ac-[αAllylPro]D[tBuAla][B5(4)]DDAAFN[PyrS2″][Phe(2-Cl)][Bta][Leu(ol)] (staple 1-4, 4-11) [I-1080]
DLD1 4% Abs IC50 [1]: 10.4 µM | NanoBRET Abs IC50 [2]: > 20 µM

Ac-[αAllylPro]D[tBuAla][B5(3)]DDAAFN[PyrS2″][Phe(2-Cl)][Bta]-Alaol (staple 1-4, 4-11) [I-1081]
DLD1 4% Abs IC50 [1]: 10.6 µM | NanoBRET Abs IC50 [2]: 16.7 µM

Ac-[αAllylPro]D[tBuAla][B5″]D[TfeGA]AAFN[PyrS2(3)][3Thi][Bta]Q-NH2 (staple 1-4, 4-11) [I-761]
NanoBRET IC50 (B-cat-Halo [3]): 5 µM

Ac-[αAllylPro]D[tBuAla][B5(4)]DDAAFL[PyrS2″][Phe(2-CF3)][Bta]Q-NH2 (staple 1-4, 4-11) [I-1318]
NanoBRET Abs IC50 (B-cat-Halo [4]): 4.8 µM | DLD1 4% Abs IC50 [5]: 3.9 µM

Ac-[αAllylPro]D[tBuAla][B5(4)]DDAAFF[PyrS2″][Phe(2-CF3)][Bta]Q-NH2 (staple 1-4, 4-11) [I-1319]
NanoBRET Abs IC50 (B-cat-Halo [4]): 4.2 µM | DLD1 4% Abs IC50 [5]: 2.1 µM

B1: I-1684 (peptide)
peptide: Ac-[αAllylPro]D[tBuAla][B5(16)]D[Phe(3-COOH)]GAFL[PyrS2(4)][Phe(2-Cl)][Bta]Q-NH2
modifications: staple 1-4, 4-11; not fully specified; printed as Ac-PL3-Asp-Npg-B5-Asp-3COOHF-Gly-Ala-Phe-Leu-PyrS2-2C1F-BztA-Gln-NH2; reading uncertain
DLD1 4% Abs IC50 [6]: 3.4 µM

Ac-[αAllylPro]D[tBuAla][B5(16)]D[Phe(3-COOH)][Nle]AFL[PyrS2(5)][Phe(2-Cl)][Bta]Q-NH2 (staple 1-4, 4-11) [I-1685]
DLD1 4% Abs IC50 [6]: 1.3 µM

B2: I-1918 (peptide)
peptide: Ac-[αAllylPro]D[tBuAla][B5(4)]D[Phe(3-COOH)]QAFL[PyrS2(4)][3Thi][Bta]A-NH2
modifications: staple 1-4, 4-11; not fully specified; printed as Ac-PL3-Asp-Npg-B5-Asp-3COOHF-Gln-Ala-Phe-Leu-PyrS2-3Thi-BztA-Ala-NH2; reading uncertain
DLD1 4% Abs IC50 [7]: 6.5 µM | NanoBRET Abs IC50 [8]: 4 µM

B3: I-1920 (peptide)
peptide: Ac-[αAllylPro]D[tBuAla][B5(4)]D[Phe(3-COOH)][Aib]AFL[PyrS2(4)][3Thi][Bta]A-NH2
modifications: staple 1-4, 4-11; not fully specified; printed as Ac-PL3-Asp-Npg-B5-Asp-3COOHF-Aib-Ala-Phe-Leu-PyrS2-3Thi-BztA-Ala-NH2; reading uncertain
DLD1 4% Abs IC50 [7]: 1.2 µM | NanoBRET Abs IC50 [8]: 3.1 µM

Ac-[αAllylPro]DL[B5(4)]DEAAFN[S8]F[Bta]N-NH2 (staple 1-4, 4-11; also: olefin E/Z not assigned, earlier-eluting staple isomer, Stapled peptide composition) [I-752]
IC50 (Bcat-Halo): 9.9 µM | EC50 [9]: 0.016 µM
